Results published in patent US20110135657A1 (published 2011).
Positions count from the first letter of the chain named. In names and notes the source's numbering stands.

B1: 16H7 variant, heavy chain E16Q + V24F + I83T (antibody, human IgG2, lambda)
heavy: QVTLKESGPVLVKPTQTLTLTCTFSGFSLNNARMGVSWIRQPPGKALEWLAHIFSNDEKSYSTSLKSRLTISKDTSKSQVVLTMTNMDPVDTATYYCARSVVTGGYYYDGMDVWGQGTTVTVSSASTKGPSVFPLAPCSRSTSESTAALGCLVKDYFPEPVTVSWNSGALTSGVHTFPAVLQSSGLYSLSSVVTVPSSNFGTQTYTCNVDHKPSNTKVDKTVERKCCVECPPCPAPPVAGPSVFLFPPKPKDTLMISRTPEVTCVVVDVSHEDPEVQFNWYVDGVEVHNAKTKPREEQFNSTFRVVSVLTVVHQDWLNGKEYKCKVSNKGLPAPIEKTISKTKGQPREPQVYTLPPSREEMTKNQVSLTCLVKGFYPSDIAVEWESNGQPENNYKTTPPMLDSDGSFFLYSKLTVDKSRWQQGNVFSCSVMHEALHNHYTQKSLSLSPGK
light: not shown
B2: 16H7 variant, heavy chain E16Q + V24F + I83T + T119L (antibody, human IgG2, lambda)
heavy: B1 heavy with T119L
light: not shown
B3: 16H7 variant, heavy chain I83T (antibody, human IgG2, lambda, V domains shown)
VH: not shown
VL: SYVLTQPPSVSVAPGQTARITCGGNNIGSESVHWYQQKPGQAPVLVVYDDSDRPSGIPERFSGSNSGNTATLTISRVEAGDEADYYCQVWDGNSDHVVFGGGTKLTVLG
B4: 16H7 variant, heavy chain Deletion of Y107 (antibody, human IgG2, lambda, V domains shown)
VH: QVTLKESGPVLVKPTETLTLTCTVSGFSLNNARMGVSWIRQPPGKALEWLAHIFSNDEKSYSTSLKSRLTISKDTSKSQVVLIMTNMDPVDTATYYCARSVVTGGYYDGMDVWGQGTTVTVSS
VL: B3 VL
B5: 16H7 variant, light chain D49A + D91A (antibody, human IgG2, lambda, V domains shown)
VH: not shown
VL: B3 VL with D49A, D91A
B6: 22H5 Heavy Chain, Insertion of Y107 (SEQ ID NO 405), as printed in Table 7 (antibody, human IgG2, lambda, V domains shown)
VH: QVTLKESGPVLVKPTETLTLTCTVSGFSLNNARMGVSWIRQPPGKALEWLAHIFSNDEKSYSTSLKSRLTISKDTSKSQVVLIMTNMDPVDTATYYCARSVVTGGYYYYDGMDVWGQGTTVTVSS
VL: B3 VL with E30Q, G92N, N93T
B7: 16H7 variant, heavy chain S100I (antibody, human IgG2, lambda, V domains shown)
VH: not shown
VL: B3 VL
B8: 16H7 variant, heavy chain E16Q + V24F + I83T + S100I + T119L (antibody, human IgG2, lambda, V domains shown)
VH: QVTLKESGPVLVKPTQTLTLTCTFSGFSLNNARMGVSWIRQPPGKALEWLAHIFSNDEKSYSTSLKSRLTISKDTSKSQVVLTMTNMDPVDTATYYCARIVVTGGYYYDGMDVWGQGTLVTVSS
VL: B3 VL
B9: 16H7 variant, heavy chain D88R + P89A + V90E (antibody, human IgG2, lambda, V domains shown)
VH: B8 VH with Q16E, F24V, T83I, D88R, P89A, V90E, I100S, L119T
VL: B3 VL
B10: 22H5 (antibody, human IgG2, lambda, V domains shown)
VH: B8 VH with Q16E, F24V, N30S, V101L, V102L, T103V, G105A, D109C, L119T
VL: B3 VL with E30Q, G92N, N93T
notes: fully human monoclonal antibody; full chains H2/L2; also called 22H5 (WT)
B11: 16H7 variant, heavy chain I83K (antibody, human IgG2, lambda, V domains shown)
VH: not shown
VL: B3 VL
B12: 16H7 variant, heavy chain V24F (antibody, human IgG2, lambda, V domains shown)
VH: not shown
VL: B3 VL
B13: 16H7 variant, heavy chain D88R + P89A + V90E + S100I (antibody, human IgG2, lambda, V domains shown)
VH: B8 VH with Q16E, F24V, T83I, D88R, P89A, V90E, L119T
VL: B3 VL
B14: 16H7 variant, heavy chain D109S (antibody, human IgG2, lambda, V domains shown)
VH: not shown
VL: B3 VL
B15: 16H7 variant, light chain D49Y (antibody, human IgG2, lambda, V domains shown)
VH: not shown
VL: B3 VL with D49Y
B16: 22H5 variant, light chain N92Q (antibody, human IgG2, lambda, V domains shown)
VH: B8 VH with Q16E, F24V, N30S, V101L, V102L, T103V, G105A, D109C, L119T
VL: B3 VL with E30Q, G92Q, N93T
notes: variant chain entry already carries the change; also called #7, P60897.3
B17: 16H7 (antibody, human IgG2, lambda, V domains shown)
VH: not shown
VL: B3 VL
B18: 22H5 variant, light chain S94A (antibody, human IgG2, lambda, V domains shown)
VH: B8 VH with Q16E, F24V, N30S, V101L, V102L, T103V, G105A, D109C, L119T
VL: B3 VL with E30Q, G92N, N93T, S94A
notes: variant chain entry already carries the change; also called #6, P60898.3
B19: 22H5 variant, heavy chain C109S (antibody, human IgG2, lambda, V domains shown)
VH: B8 VH with Q16E, F24V, N30S, V101L, V102L, T103V, G105A, D109S, L119T
VL: B3 VL with E30Q, G92N, N93T
notes: variant chain entry already carries the change; also called #23, P60899.2
B20: 40D2 (antibody, human IgG2, kappa, V domains shown)
VH: QVQLQESGPGLVKPSQTLSLTCTVSGGSISSGGYNWSWIRQHPGKGLEWIGNIYYSGSTYYNPSLKSRVTISVDTSKNQFSLKLRSVTAADTAVYYCARENIVVIPAAIFAGWFDPWGQGTLVTVSS
VL: DFVMTQTPLSLSVTPGQPASISCKSSQSLLQSDGKTYLYWYLQKPGQPPHLLIYEVSNRFSGVPDRFSGSGSGTDFTLKISRVEAEDVGVYYCMQSIQLPRTFGQGTKVEIKR
notes: fully human monoclonal antibody
B21: 46D11 (antibody, human IgG2, kappa, V domains shown)
VH: B6 VH with S7A, N30S, S37N, I83T, S100V, V101R, V102I, T103A, G105D, D110Y
VL: DIQMTQSPSSVSASVGDRVTITCRASQGISIWLAWYQQKPGKAPKLLIYAASSLQSGVPSRFSGSGSGTDFTLTISSLQPEDFATYYCQQANDFPITFGQGTRLEIKR
notes: fully human monoclonal antibody; full chains H13/L13
B22: 18G1 (antibody, human IgG2, kappa, V domains shown)
VH: EVQLLESGGGLVQPGGSLRLSCAASRFTFSTYAMSWVRQAPGKGLEWVSGISGSGVSTHYADSVKGRFTISRDNSKNTLYLQMNSLRAEDTAVYYCAKSLIVVIVYALDHWGQGTLVTVSS
VL: EIVLTQSPGTLSLSPGERATLSCRASQNFDSSYLAWYQQKPGQAPRLLIYGTSSRATGIPDRFSGIGSGTDFTLTINRLEPEDFAMYYCQQYGGSPLTFGGGTEVEIKR
notes: fully human monoclonal antibody; full chains H5/L4
B23: 37D3 (antibody, human IgG2, kappa, V domains shown)
VH: EVHLVESGGGLAKPGGSLRLSCAASGFTFRNAWMSWVRQAPGKGLEWVGRIKSKTDGGTTDYAAPVKGRFTISRDDSKNTLYLQMNSLKTEDTAEYYCITDRVLSYYAMAVWGQGTTVTVSS
VL: DIVMTQSPLSLPVTPGEPASISCRSSQSLLHSNGYNFLDWYLQKPGQSPQLLIYLGSDRASGVPDRFSGSGSGTEFTLKISRVEAEDVGLYYCMQALQTPCSFGQGTKLEIKR
notes: as for B20
B24: 17C3 (antibody, human IgG2, lambda, V domains shown)
VH: B8 VH with Q16E, F24V, N30S, V101L, V102L, T103L, G105A, D109Y, L119T
VL: B3 VL with E30Q, G92S, N93S
notes: fully human monoclonal antibody from XenoMouse hybridoma

molecular target: T1, human FGF21 receptor (FGF21R): full length human FGFR1c and full length human β-Klotho co-expressed at the … (human, UniProt P11362 22-822; Q86Z14 53-1044); test: cell-based or functional assay

EC50 (nM), Erk-phosphorylation, human adipocyte assay [nM] | Binder
0.38 | B1
0.36 | B2
0.73 | B3
1.04 | B4
1.4 | B5
0.51 | B6
0.17 | B7
0.24 | B8
0.35 | B9
2.27 | B10
0.39 | B11
0.75 | B12
0.14 | B13
0.31 | B14
0.6 | B15
3.33 | B16
0.53 | B17
1.98 | B18

molecular target: T1, human FGF21 receptor (FGF21R): full …; test: cell-based or functional assay; remark: another data set of the same source

Activity (%) = % of FGF21 activity, luciferase reporter, AM-1/D FGFR1c+β-Klotho Luc clone; antibody combined with isotype IgG2k control | Binder
23.5 % of FGF21 activity | B17

molecular target: T2, His-tagged human recombinant β-Klotho (human, UniProt Q86Z14 53-997, limits assumed); test: Biacore, 100 nM mAb over His-tagged human β-Klotho captured on anti-His antibody
T2 construct: also called β-Klotho captured on anti-His; human β-Klotho; not shown: His tag
Protocol: Briefly, mouse anti-His antibody (Qiagen, Valencia, Calif.) was immobilized on a CM5 chip using amine coupling reagents (General Electronics, Piscataway, N.J.). His-tagged human recombinant β-Klotho was captured on the second flow cell to ˜100RU. The first flow cell was used as a background control. 100 nM mAbs were diluted in PBS plus 0.1 mg/ml BSA, 0.005% P20 and injected over the β-Klotho captured on anti-His antibody surface. For kinetic measurement, 0.78-100 nM mAbs diluted in PBS plus 0.1 mg/ml BSA, 0.005% P20 were injected over the β-Klotho surface.

koff [s⁻¹] | Binder
0.00031 | B10
0.0003 | B19
0.00052 | B16
0.00035 | B18

molecular target: T3, soluble human β-Klotho (Biacore, Example 8) (human, UniProt Q86Z14 53-996, limits assumed); test: Biacore competition binning; test antibody injected over soluble receptor captured on immobilized 24H11, 17D8 or 1A2.1
T3 construct: also called soluble β-Klotho
From the text: Soluble human FGFR1c/β-Klotho ECD-Fc complex or β-Klotho was then captured on the immobilized antibody surfaces.

binding result | Binder
binds | B20
binds | B21
binds | B22
binds | B23
binds | B24
